From patent publication US20170198056A1 (MEDICINAL CHEMISTRY PHARMACEUTICALS, published 2017) come the findings set out here.

The target of assay [1] is T1, Compound 13: … (human).
T1 construct: also called glycopeptide in which Tn has been modified in the tandem unit peptide of MUC2
T1 peptide: {5‑oxohexanoyl}-PPTT(αGalNAc)T(αGalNAc)PSPPPTSTT(αGalNAc)T(αGalNAc)LPPT-NH2
Nature of the assay: glycopeptide microarray, Cy3 anti-mouse IgG.
Method: (§1) A substrate for an immobilized sugar chain array (made by Sumitomo Bakelite) was treated for 2 hours at 37° C. with 2 M HCl and the t-butoxycarbonyl group (Boc group) protection was removed. The product was washed twice with water and then dried to place aminoxy groups on the surface of the substrate. A spotting solution (25 mM AcOH/pyridine, 0.005% Triton X-100, pH 5.4) was added to the various synthetic glycopeptides shown in Table 1 to dissolve them. A spotter (BioChip Arrayer, made by Cartesion) employed a spot pin (CMP, pin diameter 0.4 mm, Arraylt Corp.) to spot the substrate. A reaction was conducted for 1 hour at 80° C. to immobilize the glycopeptides on the substrate. Washing was conducted once with water, the product was immersed in 10 mg/mL succinic anhydride, a reaction was conducted for 3 hours at room temperature, and the unreacted aminooxy groups were protected. Washing was conducted twice with water and the product was dried.
(§2) The reaction supernatant was diluted 10-fold with the reaction solution given below. A Hybricover (made by Sumitomo Bakelite) was placed on the immobilized glycopeptide array, 70 μL of the diluted solution was spread out, and a reaction was conducted for 2 hours at room temperature. […] Fluorescent intensity of Cy3 was measured with a scanner (Typhoon TRIO+, GE Healthcare). […]

Assay [2] has as its target T2, Compound 15: 5-oxohexanoyl-Ser-Ala-Ser-Thr-Gly-His-Ala-Thr(Tn)-Pro-Leu-Pro-Val-Thr-Asp-Thr-Ser-Cys-NH2 (human).
T2 construct: also called glycopeptide in which Tn has been modified in the tandem unit peptide of MUC4
T2 peptide: {5‑oxohexanoyl}-SASTGHAT(αGalNAc)PLPVTDTSC-NH2
As to the kind of experiment: glycopeptide microarray, Cy3 anti-mouse IgG.
Method: as §1, §2

*: point of attachment. αGalNAc = CC(=O)N[C@@H]1[C@@H](O)[C@@H](O)[C@@H](CO)O[C@@H]1*

B1: Monoclonal antibody SN-101 (antibody, V domains shown)
VH: EVNLEESGGGLVQPGGSMKLSCVASGFTFSNYWMNWVRQSPEKGLEWVAQIRLKSDNYATHYAESVKGRFTISRDDSKSSVYLQMNNLRAEDTGIYYCTGGVFDYWGQGTTLTVSS
VL: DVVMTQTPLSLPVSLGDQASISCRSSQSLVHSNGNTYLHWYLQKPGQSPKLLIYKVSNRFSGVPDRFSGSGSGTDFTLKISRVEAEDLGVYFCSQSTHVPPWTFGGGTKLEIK
notes: Mouse monoclonal antibody from a hybridoma; it was purified on Protein G and detected with anti-mouse IgG; The array assay used culture supernatant diluted 10-fold; also called antibody of hybridoma strain 3A9-4B1 (NITE BP-01845)
As for B1, the binding result in assay [1] and in assay [2] was “no binding” in each case.
